Experimental data as given in patent US20120329707A1 (INDIANA UNIVERSITY RESEARCH AND TECHNOLOGY, published 2012).
Numbered stars: 1 amine (or outer) side, 2 acyl side, 3 side chain; on linkers, the order of the positions; unused ones are H or OH. Square brackets hold non-standard residues; d marks the D form. Primed or numbered codes have the meaning given here. Side chains are listed from the residue outwards. Ends that are not written are not given here. * marks the point of attachment. 40K‑TE PEG″ = 40 kDa PEG bound to Cys via thioether made from an iodoacetyl-functionalised PEG; γGlu = O=C(O)[C@H](CCC(=O)[*:2])N[*:1]; Palmitoyl = CCCCCCCCCCCCCCCC(=O)*; Aib = CC(C)(N)C(=O)O

T1: GIP receptor
T1 sequence (P48546 whole entry, species assumed, looked up): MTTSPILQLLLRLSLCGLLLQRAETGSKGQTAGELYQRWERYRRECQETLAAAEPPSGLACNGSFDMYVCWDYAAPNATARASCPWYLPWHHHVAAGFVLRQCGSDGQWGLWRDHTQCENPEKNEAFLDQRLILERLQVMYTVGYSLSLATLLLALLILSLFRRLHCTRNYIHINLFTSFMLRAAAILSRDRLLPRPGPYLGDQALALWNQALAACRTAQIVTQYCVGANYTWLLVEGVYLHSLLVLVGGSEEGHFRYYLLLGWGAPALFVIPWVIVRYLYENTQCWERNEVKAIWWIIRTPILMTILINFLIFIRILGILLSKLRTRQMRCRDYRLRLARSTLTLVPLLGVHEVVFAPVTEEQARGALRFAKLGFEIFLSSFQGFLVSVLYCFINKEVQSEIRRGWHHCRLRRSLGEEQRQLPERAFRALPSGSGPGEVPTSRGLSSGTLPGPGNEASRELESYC

B1: peptide of SEQ ID NO: 26 (peptide)
peptide: H[Aib]QGTFTSDK([γGlu-γGlu-Palmitoyl])SKYLD[Aib]RAAQDFVQWLK[Aib]GRG-NH2
modifications: N-terminus assumed
SMILES: CCCCCCCCCCCCCCCC(=O)N[C@@H](CCC(=O)N[C@@H](CCC(=O)NCCCC[C@H](NC(=O)[C@H](CC(=O)O)NC(=O)[C@H](CO)NC(=O)[C@@H](NC(=O)[C@H](Cc1ccccc1)NC(=O)[C@@H](NC(=O)CNC(=O)[C@H](CCC(N)=O)NC(=O)C(C)(C)NC(=O)[C@@H](N)Cc1c[nH]cn1)[C@@H](C)O)[C@@H](C)O)C(=O)N[C@@H](CO)C(=O)N[C@@H](CCCCN)C(=O)N[C@@H](Cc1ccc(O)cc1)C(=O)N[C@@H](CC(C)C)C(=O)N[C@@H](CC(=O)O)C(=O)NC(C)(C)C(=O)N[C@@H](CCCNC(=N)N)C(=O)N[C@@H](C)C(=O)N[C@@H](C)C(=O)N[C@@H](CCC(N)=O)C(=O)N[C@@H](CC(=O)O)C(=O)N[C@@H](Cc1ccccc1)C(=O)N[C@H](C(=O)N[C@@H](CCC(N)=O)C(=O)N[C@@H](Cc1c[nH]c2ccccc12)C(=O)N[C@@H](CC(C)C)C(=O)N[C@@H](CCCCN)C(=O)NC(C)(C)C(=O)NCC(=O)N[C@@H](CCCNC(=N)N)C(=O)NCC(N)=O)C(C)C)C(=O)O)C(=O)O
B2: peptide of SEQ ID NO: 22 (peptide)
peptide: H[Aib]QGTFTSDK([γGlu-γGlu-Palmitoyl])SKYLD[Aib]RAAQDFVQWLMDGRG-NH2
modifications: N-terminus assumed
SMILES: CCCCCCCCCCCCCCCC(=O)N[C@@H](CCC(=O)N[C@@H](CCC(=O)NCCCC[C@H](NC(=O)[C@H](CC(=O)O)NC(=O)[C@H](CO)NC(=O)[C@@H](NC(=O)[C@H](Cc1ccccc1)NC(=O)[C@@H](NC(=O)CNC(=O)[C@H](CCC(N)=O)NC(=O)C(C)(C)NC(=O)[C@@H](N)Cc1c[nH]cn1)[C@@H](C)O)[C@@H](C)O)C(=O)N[C@@H](CO)C(=O)N[C@@H](CCCCN)C(=O)N[C@@H](Cc1ccc(O)cc1)C(=O)N[C@@H](CC(C)C)C(=O)N[C@@H](CC(=O)O)C(=O)NC(C)(C)C(=O)N[C@@H](CCCNC(=N)N)C(=O)N[C@@H](C)C(=O)N[C@@H](C)C(=O)N[C@@H](CCC(N)=O)C(=O)N[C@@H](CC(=O)O)C(=O)N[C@@H](Cc1ccccc1)C(=O)N[C@H](C(=O)N[C@@H](CCC(N)=O)C(=O)N[C@@H](Cc1c[nH]c2ccccc12)C(=O)N[C@@H](CC(C)C)C(=O)N[C@@H](CCSC)C(=O)N[C@@H](CC(=O)O)C(=O)NCC(=O)N[C@@H](CCCNC(=N)N)C(=O)NCC(N)=O)C(C)C)C(=O)O)C(=O)O
B3: peptide of SEQ ID NO: 23 (peptide)
peptide: H[Aib]QGTFTSDK([γGlu-γGlu-Palmitoyl])SKYLD[Aib]RAAQDFVQWLMKGRG-NH2
modifications: N-terminus assumed
SMILES: CCCCCCCCCCCCCCCC(=O)N[C@@H](CCC(=O)N[C@@H](CCC(=O)NCCCC[C@H](NC(=O)[C@H](CC(=O)O)NC(=O)[C@H](CO)NC(=O)[C@@H](NC(=O)[C@H](Cc1ccccc1)NC(=O)[C@@H](NC(=O)CNC(=O)[C@H](CCC(N)=O)NC(=O)C(C)(C)NC(=O)[C@@H](N)Cc1c[nH]cn1)[C@@H](C)O)[C@@H](C)O)C(=O)N[C@@H](CO)C(=O)N[C@@H](CCCCN)C(=O)N[C@@H](Cc1ccc(O)cc1)C(=O)N[C@@H](CC(C)C)C(=O)N[C@@H](CC(=O)O)C(=O)NC(C)(C)C(=O)N[C@@H](CCCNC(=N)N)C(=O)N[C@@H](C)C(=O)N[C@@H](C)C(=O)N[C@@H](CCC(N)=O)C(=O)N[C@@H](CC(=O)O)C(=O)N[C@@H](Cc1ccccc1)C(=O)N[C@H](C(=O)N[C@@H](CCC(N)=O)C(=O)N[C@@H](Cc1c[nH]c2ccccc12)C(=O)N[C@@H](CC(C)C)C(=O)N[C@@H](CCSC)C(=O)N[C@@H](CCCCN)C(=O)NCC(=O)N[C@@H](CCCNC(=N)N)C(=O)NCC(N)=O)C(C)C)C(=O)O)C(=O)O
B4: peptide of SEQ ID NO: 25 (peptide)
peptide: H[Aib]QGTFTSDK([γGlu-γGlu-Palmitoyl])SKYLD[Aib]RAAQDFVQWLKDGRP-NH2
modifications: N-terminus assumed
SMILES: CCCCCCCCCCCCCCCC(=O)N[C@@H](CCC(=O)N[C@@H](CCC(=O)NCCCC[C@H](NC(=O)[C@H](CC(=O)O)NC(=O)[C@H](CO)NC(=O)[C@@H](NC(=O)[C@H](Cc1ccccc1)NC(=O)[C@@H](NC(=O)CNC(=O)[C@H](CCC(N)=O)NC(=O)C(C)(C)NC(=O)[C@@H](N)Cc1c[nH]cn1)[C@@H](C)O)[C@@H](C)O)C(=O)N[C@@H](CO)C(=O)N[C@@H](CCCCN)C(=O)N[C@@H](Cc1ccc(O)cc1)C(=O)N[C@@H](CC(C)C)C(=O)N[C@@H](CC(=O)O)C(=O)NC(C)(C)C(=O)N[C@@H](CCCNC(=N)N)C(=O)N[C@@H](C)C(=O)N[C@@H](C)C(=O)N[C@@H](CCC(N)=O)C(=O)N[C@@H](CC(=O)O)C(=O)N[C@@H](Cc1ccccc1)C(=O)N[C@H](C(=O)N[C@@H](CCC(N)=O)C(=O)N[C@@H](Cc1c[nH]c2ccccc12)C(=O)N[C@@H](CC(C)C)C(=O)N[C@@H](CCCCN)C(=O)N[C@@H](CC(=O)O)C(=O)NCC(=O)N[C@@H](CCCNC(=N)N)C(=O)N1CCC[C@H]1C(N)=O)C(C)C)C(=O)O)C(=O)O
B5: peptide of SEQ ID NO: 29 (peptide)
peptide: H[Aib]QGTFTSDK([γGlu-γGlu-Palmitoyl])SKYLD[Aib]RAAQDFVQWLL[Aib]GRG-NH2
modifications: N-terminus assumed
SMILES: CCCCCCCCCCCCCCCC(=O)N[C@@H](CCC(=O)N[C@@H](CCC(=O)NCCCC[C@H](NC(=O)[C@H](CC(=O)O)NC(=O)[C@H](CO)NC(=O)[C@@H](NC(=O)[C@H](Cc1ccccc1)NC(=O)[C@@H](NC(=O)CNC(=O)[C@H](CCC(N)=O)NC(=O)C(C)(C)NC(=O)[C@@H](N)Cc1c[nH]cn1)[C@@H](C)O)[C@@H](C)O)C(=O)N[C@@H](CO)C(=O)N[C@@H](CCCCN)C(=O)N[C@@H](Cc1ccc(O)cc1)C(=O)N[C@@H](CC(C)C)C(=O)N[C@@H](CC(=O)O)C(=O)NC(C)(C)C(=O)N[C@@H](CCCNC(=N)N)C(=O)N[C@@H](C)C(=O)N[C@@H](C)C(=O)N[C@@H](CCC(N)=O)C(=O)N[C@@H](CC(=O)O)C(=O)N[C@@H](Cc1ccccc1)C(=O)N[C@H](C(=O)N[C@@H](CCC(N)=O)C(=O)N[C@@H](Cc1c[nH]c2ccccc12)C(=O)N[C@@H](CC(C)C)C(=O)N[C@@H](CC(C)C)C(=O)NC(C)(C)C(=O)NCC(=O)N[C@@H](CCCNC(=N)N)C(=O)NCC(N)=O)C(C)C)C(=O)O)C(=O)O
B6: peptide of SEQ ID NO: 24 (peptide)
peptide: H[Aib]QGTFTSDK([γGlu-γGlu-Palmitoyl])SKYLD[Aib]RAAQDFVQWLKDGRG-NH2
modifications: N-terminus assumed
SMILES: CCCCCCCCCCCCCCCC(=O)N[C@@H](CCC(=O)N[C@@H](CCC(=O)NCCCC[C@H](NC(=O)[C@H](CC(=O)O)NC(=O)[C@H](CO)NC(=O)[C@@H](NC(=O)[C@H](Cc1ccccc1)NC(=O)[C@@H](NC(=O)CNC(=O)[C@H](CCC(N)=O)NC(=O)C(C)(C)NC(=O)[C@@H](N)Cc1c[nH]cn1)[C@@H](C)O)[C@@H](C)O)C(=O)N[C@@H](CO)C(=O)N[C@@H](CCCCN)C(=O)N[C@@H](Cc1ccc(O)cc1)C(=O)N[C@@H](CC(C)C)C(=O)N[C@@H](CC(=O)O)C(=O)NC(C)(C)C(=O)N[C@@H](CCCNC(=N)N)C(=O)N[C@@H](C)C(=O)N[C@@H](C)C(=O)N[C@@H](CCC(N)=O)C(=O)N[C@@H](CC(=O)O)C(=O)N[C@@H](Cc1ccccc1)C(=O)N[C@H](C(=O)N[C@@H](CCC(N)=O)C(=O)N[C@@H](Cc1c[nH]c2ccccc12)C(=O)N[C@@H](CC(C)C)C(=O)N[C@@H](CCCCN)C(=O)N[C@@H](CC(=O)O)C(=O)NCC(=O)N[C@@H](CCCNC(=N)N)C(=O)NCC(N)=O)C(C)C)C(=O)O)C(=O)O

Each binder was assayed against GLP-1 receptor (assay: cell-based or functional assay).
H[dS]QGTFTSDK([γGlu-Palmitoyl])SKYLDERAAQDFVQWLLDGRK-NH2 [peptide of SEQ ID NO: 28] was tested, and the “EC50 (nM) at GLP-1 receptor” value was 0.003 nM. In the case of H[Aib]QGTFTSDYSKYLDERRA[Aib]EFVC(40K‑TE PEG″)WLLDT-NH2 [peptide of SEQ ID NO: 14], the “EC50 (nM) at GLP-1 receptor” value is reported as 0.076 nM. B1 was tested, and the “EC50 (nM) at GLP-1 receptor” value was 0.004 nM. For B2, the “EC50 (nM) at GLP-1 receptor” value was 0.002 nM. With B3 the “EC50 (nM) at GLP-1 receptor” value was 0.004 nM. With B4 the “EC50 (nM) at GLP-1 receptor” value was 0.003 nM. For B5, the “EC50 (nM) at GLP-1 receptor” value was 0.007 nM. With B6 the “EC50 (nM) at GLP-1 receptor” value was 0.004 nM. In the case of H[dS]QGTFTSDK([γGlu-Palmitoyl])SKYLDERAAQDFVQWLLKGRG-NH2 [peptide of SEQ ID NO: 27], the “EC50 (nM) at GLP-1 receptor” value is reported as 0.005 nM.

Each binder was assayed against T1, GIP receptor (assay: cell-based or functional assay).
H[dS]QGTFTSDK([γGlu-Palmitoyl])SKYLDERAAQDFVQWLLDGRK-NH2 [peptide of SEQ ID NO: 28] was tested, and the “EC50 (nM) at GIP receptor” value was 2.84 nM. In the case of H[Aib]QGTFTSDYSKYLDERRA[Aib]EFVC(40K‑TE PEG″)WLLDT-NH2 [peptide of SEQ ID NO: 14], the “EC50 (nM) at GIP receptor” value is reported as 33.7 nM. B1 was tested, and the “EC50 (nM) at GIP receptor” value was 3.29 nM. In the case of B2, the “EC50 (nM) at GIP receptor” value is reported as 2.37 nM. For B3, the “EC50 (nM) at GIP receptor” value was 1.58 nM. For B4, the “EC50 (nM) at GIP receptor” value was 2.36 nM. For B5, the “EC50 (nM) at GIP receptor” value was 1.65 nM. In the case of B6, the “EC50 (nM) at GIP receptor” value is reported as 1.46 nM. In the case of H[dS]QGTFTSDK([γGlu-Palmitoyl])SKYLDERAAQDFVQWLLKGRG-NH2 [peptide of SEQ ID NO: 27], the “EC50 (nM) at GIP receptor” value is reported as 2.12 nM.

The binders below were run against glucagon receptor (assay: cell-based or functional assay).
In the case of H[dS]QGTFTSDK([γGlu-Palmitoyl])SKYLDERAAQDFVQWLLDGRK-NH2 [peptide of SEQ ID NO: 28], the “EC50 (nM) at glucagon receptor” value is reported as 0.015 nM. For H[Aib]QGTFTSDYSKYLDERRA[Aib]EFVC(40K‑TE PEG″)WLLDT-NH2 [peptide of SEQ ID NO: 14], the “EC50 (nM) at glucagon receptor” value was 0.365 nM. For B1, the “EC50 (nM) at glucagon receptor” value was 0.106 nM. B2 was tested, and the “EC50 (nM) at glucagon receptor” value was 0.005 nM. With B3 the “EC50 (nM) at glucagon receptor” value was 0.023 nM. B4 was tested, and the “EC50 (nM) at glucagon receptor” value was 0.035 nM. B5 was tested, and the “EC50 (nM) at glucagon receptor” value was 0.014 nM. With B6 the “EC50 (nM) at glucagon receptor” value was 0.021 nM. For H[dS]QGTFTSDK([γGlu-Palmitoyl])SKYLDERAAQDFVQWLLKGRG-NH2 [peptide of SEQ ID NO: 27], the “EC50 (nM) at glucagon receptor” value was 0.022 nM.
